The data set deals with the molecule itself. As to the kind of experiment: crystal structure; apo DiB3, crystals grown at 21 °C in 0.8 M sodium citrate, 50 mM sodium borate, 0.1 sodium acetate, pH 3.5; one chain in the asymmetric unit, dimer with a crystallographic symmetry mate.

The results in this text go back to publication PMC7338535 (Scientific Reports, 2020).

B1: DiB3 (natural protein)
chain: LESTSLYKKSSSTPPRGVTVVNNFDAKRYLGTWYEIARFDHRFERGLEKVTATYSLRDDGGLNFINKGYNPDRGMWQQSEGKAYFTGAPTRAALKVSFFGPFYGGYNVIALDREYRHALVCGPDRDYLWIQSRTPTISDEVKQEMLAVATREGFDVSKFIWVQQPGS
For B1, the “stoichiometry N” value stood at 2.
